According to article PMC8778164, “Towards Complete Tumor Resection: Novel Dual-Modality Probes for Improved Image-Guided Surgery of GRPR-Expressing Prostate Cancer” (Pharmaceutics, 2022):
Read-outs that look alike come from different tables or passages of the source.

Experiments:
[1] = Stability in mouse serum at 37 °C (iTLC); type: in vitro ADME
Description: (§1) Stability in PBS was determined by incubating 20 µL of the labeled compounds (∼11 MBq) in PBS (80 µL) at 37 °C. Radiochemical purity was determined by iTLC at 30 min, 1 h, 2 h and 4 h. Stability in the serum was carried out by adding 70 µL of the labeled compound (∼35 MBq) to 330 µL of mouse serum (Merck, Haarlerbergweg, The Netherlands). The mixture was incubated at 37 °C. At different time points (30 min, 1 h, 2 h and 4 h), an aliquot of the mixture (50 µL) was added to 50 µL ACN. The vial was vortexed and centrifuged at 10,000 rpm for 20 min and the supernatant was analyzed by iTLC.

[2] = Stability in PBS at 37 °C (iTLC); type: physicochemical; details: intact labeled ligand after incubation at 37 °C in PBS, n = 1
Description: as §1

[3] = tested on: PC-3-xenograft Balb/c nu/nu mice; experiment: Ex vivo biodistribution after SPECT/CT scanning; type: in vivo, mouse; details: radioactivity, ~3 h p.i.
Description: (§2) Seven-week-old male Balb/c nu/nu-specific and opportunistic pathogen-free (SOPF) mice (Janvier Labs, Le Genest-Saint-Isle, France) were housed in individually ventilated cages, with 4 mice per cage. Upon arrival, mice were acclimated for 1 week, with access to food and water ad libitum. Mice were subcutaneously inoculated on the right shoulder with PC-3 cells (5 × 10^6 cells suspended in 100 µL of 1/3 Matrigel (Corning Inc., Corning, NY, USA) and 2/3 Hank’s balanced salt solution (Gibco). PC-3 xenografts were allowed to grow for 3 weeks. Tumor sizes were 391 ± 173 mm^3 at the start of the studies. All animal experiments were approved by the Animal Welfare Committee of the Erasmus MC and were conducted in agreement with institutional guidelines (license number: AVD101002017867, 28 September 2017).
(§3) To determine the biodistribution of the compounds after imaging (~3 h p.i.), blood was collected via cardiac puncture under isoflurane/O2 anesthesia, after which the mice were sacrificed. The tumor and organs of interest (prostate, pancreas, spleen, liver, GI tract (stomach, small intestine, cecum, large intestine), kidneys, lungs, heart, muscle, bone, and brain) were excised, washed in PBS and blotted dry. The stomach, intestines and cecum were emptied of their contents. The tumor was cut in half; one half was fresh-frozen for further analysis and the other half was collected for ex vivo optical imaging and radioactivity measurements. After imaging, the blood, tumor, and relevant organs were weighed and measured in a γ-counter. To determine the total injected radioactivity per animal, samples of the injected solutions were measured as well. The percentage of injected dose per gram (%ID/g) was determined for each tissue sample and corrected for both the injected volume and %ID present at the injection site (the tail). Because the low weight of the prostate limited accurate organ weight measurements, the average prostate weight of all animals was used.

[4] = Ex vivo biodistribution after SPECT/CT scanning; type: in vivo, mouse; details: mouse, iv, ~3 h p.i.; for tissue to tissue ratio: male, Balb/c nu/nu, total radioactivity, radioactivity; for tissue uptake at 3 h: PC-3 xenograft mice, i.v.
Description: as §2, §3

[5] = blocked with 150 nmol unlabeled NeoB, n = 1

SMILES: CC(C)CC(CC(C)C)NC(=O)[C@H](Cc1c[nH]cn1)NC(=O)CNC(=O)[C@@H](NC(=O)[C@H](C)NC(=O)[C@H](Cc1c[nH]c2ccccc12)NC(=O)[C@H](CCC(N)=O)NC(=O)[C@@H](Cc1ccccc1)NC(=O)CCOCCOCCOCCOCCNC(=O)[C@H](CCCCNC(=O)OC1CCCC2C=NN=C(c3ccc(CNC(=O)CCCCC[N+]4=C(/C=C/C=C/C=C5N(C)c6ccc(S(=O)(=O)O)cc6C5(C)C)C(C)(C)c5cc(S(=O)(=O)[O-])ccc54)cc3)C2CC1)NC(=O)CN1CCN(CC(=O)O)CCN(CC(=O)O)CCN(CC(=O)O)CC1)C(C)C (some centres unmarked) [[^111In]In-15, metal not drawn]
- Stability in Mouse Serum (%) 30 min ([1]; intact labeled ligand after incubation at 37 °C in mouse serum, 30 min, n = 1): 96.9%
- Stability in Mouse Serum (%) 1 h ([1]; intact labeled ligand after incubation at 37 °C in mouse serum, 1 h, n = 1): 96.7%
- Stability in Mouse Serum (%) 2 h ([1]; intact labeled ligand after incubation at 37 °C in mouse serum, 2 h, n = 1): 96.9%
- Stability in Mouse Serum (%) 4 h ([1]; intact labeled ligand after incubation at 37 °C in mouse serum, 4 h, n = 1): 97.1%
- Protein-Bound Fraction at 4 h (%) ([1]; mouse serum, 4 h): 6.5%
- Stability in PBS (%) 30 min ([2]; 30 min): 83.0%
- Stability in PBS (%) 1 h ([2]; 1 h): 71.8%
- Stability in PBS (%) 2 h ([2]; 2 h): 67.0%
- Stability in PBS (%) 4 h ([2]; 4 h): 57.1%
- Tumor-to-blood ratio [3, 5]: 0.32
- Tumor-to-prostate ratio [3, 5]: 3.09
- Tumor-to-prostate ratio ([3]; non-blocked, n = 3): 2.16 ± 0.46
- tissue to tissue ratio ([4]; tumor and blood, non-blocked, n = 3, read-out: Tumor-to-blood ratio): 0.38 ± 0.04
- tissue to tissue ratio ([4]; tumor and kidney, blocked with 150 nmol unlabeled NeoB, n = 1, read-out: Tumor-to-kidney ratio): 0.24
- tissue to tissue ratio ([4]; tumor and kidney, non-blocked, n = 3, read-out: Tumor-to-kidney ratio): 0.45 ± 0.04
- tissue to tissue ratio ([4]; tumor and liver, blocked with 150 nmol unlabeled NeoB, n = 1, read-out: Tumor-to-liver ratio): 0.49
- tissue to tissue ratio ([4]; tumor and liver, non-blocked, n = 3, read-out: Tumor-to-liver ratio): 0.78 ± 0.04
- tissue to tissue ratio ([4]; tumor and muscle, blocked with 150 nmol unlabeled NeoB, n = 1, read-out: Tumor-to-muscle ratio): 3.42
- tissue to tissue ratio ([4]; tumor and muscle, non-blocked, n = 3, read-out: Tumor-to-muscle ratio): 6.27 ± 0.44
- tissue to tissue ratio ([4]; tumor and pancreas, blocked with 150 nmol unlabeled NeoB, n = 1, read-out: Tumor-to-pancreas ratio): 2.95
- tissue to tissue ratio ([4]; tumor and pancreas, non-blocked, n = 3, read-out: Tumor-to-pancreas ratio): 0.72 ± 0.08
- tissue uptake at 3 h ([4]; blood, blocked with 150 nmol unlabeled NeoB, n = 1, read-out: Blood uptake): 13.9 %ID/g
- tissue uptake at 3 h ([4]; blood, non-blocked, n = 3, read-out: Blood uptake): 18.3 ± 2.12 %ID/g
- tissue uptake at 3 h ([4]; bone, blocked with 150 nmol unlabeled NeoB, n = 1, read-out: Bone uptake): 2.82 %ID/g
- tissue uptake at 3 h ([4]; bone, non-blocked, n = 3, read-out: Bone uptake): 3.05 ± 0.74 %ID/g
- tissue uptake at 3 h ([4]; brain, blocked with 150 nmol unlabeled NeoB, n = 1, read-out: Brain uptake): 0.51 %ID/g
- tissue uptake at 3 h ([4]; brain, non-blocked, n = 3, read-out: Brain uptake): 0.67 ± 0.28 %ID/g
- tissue uptake at 3 h ([4]; cecum, blocked with 150 nmol unlabeled NeoB, n = 1, read-out: Cecum uptake): 2.31 %ID/g
- tissue uptake at 3 h ([4]; cecum, non-blocked, n = 3, read-out: Cecum uptake): 5.21 ± 1.94 %ID/g
- tissue uptake at 3 h ([4]; heart, blocked with 150 nmol unlabeled NeoB, n = 1, read-out: Heart uptake): 3.27 %ID/g
- tissue uptake at 3 h ([4]; heart, non-blocked, n = 3, read-out: Heart uptake): 5.43 ± 0.69 %ID/g
- tissue uptake at 3 h ([4]; kidneys, blocked with 150 nmol unlabeled NeoB, n = 1, read-out: Kidneys uptake): 18.2 %ID/g
- tissue uptake at 3 h ([4]; kidneys, non-blocked, n = 3, read-out: Kidneys uptake): 15.4 ± 0.5 %ID/g
- tissue uptake at 3 h ([4]; large intestine, blocked with 150 nmol unlabeled NeoB, n = 1, read-out: Large intestine uptake): 2.35 %ID/g
- tissue uptake at 3 h ([4]; large intestine, non-blocked, n = 3, read-out: Large intestine uptake): 5.6 ± 1.44 %ID/g
- tissue uptake at 3 h ([4]; liver, blocked with 150 nmol unlabeled NeoB, n = 1, read-out: Liver uptake): 8.93 %ID/g
- tissue uptake at 3 h ([4]; liver, non-blocked, n = 3, read-out: Liver uptake): 8.87 ± 0.65 %ID/g
- tissue uptake at 3 h ([4]; lungs, blocked with 150 nmol unlabeled NeoB, n = 1, read-out: Lungs uptake): 18.9 %ID/g
- tissue uptake at 3 h ([4]; lungs, non-blocked, n = 3, read-out: Lungs uptake): 6.77 ± 1.73 %ID/g
- tissue uptake at 3 h ([4]; muscle, blocked with 150 nmol unlabeled NeoB, n = 1, read-out: Muscle uptake): 1.28 %ID/g
- tissue uptake at 3 h ([4]; muscle, non-blocked, n = 3, read-out: Muscle uptake): 1.1 ± 0.09 %ID/g
- tissue uptake at 3 h ([4]; pancreas, blocked with 150 nmol unlabeled NeoB, n = 1, read-out: Pancreas uptake): 1.49 %ID/g
- tissue uptake at 3 h ([4]; pancreas, non-blocked, n = 3, read-out: Pancreas uptake): 9.72 ± 1.63 %ID/g
- tissue uptake at 3 h ([4]; prostate, blocked with 150 nmol unlabeled NeoB, n = 1, read-out: Prostate uptake): 1.42 %ID/g
- tissue uptake at 3 h ([4]; prostate, non-blocked, n = 3, read-out: Prostate uptake): 3.27 ± 0.74 %ID/g
- tissue uptake at 3 h ([4]; small intestine, blocked with 150 nmol unlabeled NeoB, n = 1, read-out: Small intestine uptake): 1.97 %ID/g
- tissue uptake at 3 h ([4]; small intestine, non-blocked, n = 3, read-out: Small intestine uptake): 3.79 ± 0.69 %ID/g
- tissue uptake at 3 h ([4]; spleen, blocked with 150 nmol unlabeled NeoB, n = 1, read-out: Spleen uptake): 5.05 %ID/g
- tissue uptake at 3 h ([4]; spleen, non-blocked, n = 3, read-out: Spleen uptake): 5.86 ± 1.7 %ID/g
- tissue uptake at 3 h ([4]; stomach, blocked with 150 nmol unlabeled NeoB, n = 1, read-out: Stomach uptake): 3.48 %ID/g
- tissue uptake at 3 h ([4]; stomach, non-blocked, n = 3, read-out: Stomach uptake): 4.4 ± 1.04 %ID/g
- tissue uptake at 3 h ([4]; tumor, blocked with 150 nmol unlabeled NeoB, n = 1, read-out: Tumor uptake): 4.39 %ID/g
- tissue uptake at 3 h ([4]; tumor, non-blocked, n = 3, read-out: Tumor uptake): 6.9 ± 0.81 %ID/g
